Assay type in all cases: biochemical, M. truncatula
One series has as its target Medicago CCR1 (Medicago truncatula, UniProt A0A072VDF2). The series is described as follows: CCR enzyme activity assay with purified recombinant Medicago CCR1 expressed in E. coli. Conditions: for CCR1 activity with substrate: qualitative, FIG. 5A,C. The text has this:
(§1) To assess the potential of Medicago CCRs to produce caffeoyl aldehyde, CCR1 and CCR2 were expressed in E. coli and assayed the purified recombinant enzymes with varying concentrations of each of the four potential substrates, 4-coumaroyl-, caffeoyl-, feruloyl- and sinapoyl-CoAs. Briefly, the coding regions of CCR1 and CCR2 were amplified from the original cDNA clones with introduction of NheI enzyme sites before the ATG start codons, a BamHI site after the CCR1 stop codon, and an XhoI site after the CCR2 stop codon. The primers EpCCR1F and EpCCR1R (see Table 3 below) were used for amplification of CCR1, and EpCCR2F and EpCCR2R were used for amplification of CCR2. The PCR products were cloned into T-vector (Promega). After confirmation by sequencing, both CCR sequences were subcloned into pET28a vector (Novagen) and the resulting constructs introduced into E. coli strain BL21 ([…]) (Novagen). The clones with correct inserts were grown at 37° C. until OD600 reached about 0.6, IPTG was added to a final concentration at 0.25 mM, and culture continued at 16° C. overnight. Induced E. coli cells were harvested by centrifugation at 5,000 g for 10 min, frozen in liquid nitrogen and stored at −80° C.
All enzyme purification steps were carried out at 4° C. […]
(§2) For CCR enzyme activity assays purified CCR protein (2.5 μg) was mixed with assay buffer (100 mM phosphate pH 6.25, 10 mM 2-mercaptoethanol, 0.2 mM NADPH and cinnamoyl CoA substrates at the indicated concentration) in a final volume of 500 μl. […] Compounds were identified by comparing their UV spectra and retention times with authentic standards of hydroxycinnamoyl aldehydes, and quantified by means of standard curves with correction for recovery of internal standards. Protein concentrations were determined using Bradford reagent (Bio-Rad). For kinetic analysis at various substrate concentrations, enzyme velocity curves were analyzed using Sigmaplot 10 software (Systat Software Inc.).

In the next series the target is Medicago CCR2 (Medicago truncatula, UniProt G7JEE5). The series is described as follows: CCR enzyme activity assay with purified recombinant Medicago CCR2 expressed in E. coli. Conditions: for CCR2 activity at higher substrate concentrations: substrate inhibition, FIG. 5C,D.
Source text: as §1
(§3) All enzyme purification steps were carried out at 4° C. The harvested cells were suspended in extraction buffer (100 mM Hepes-NaOH, pH 7.5, 500 mM NaCl, 10 mM imidazole, 10% glycerol, 10 mM mercaptoethanol, 1 mM EDTA, and 1 mM PMSF), sonicated three times for 20 s and centrifuged at 16,000 g for 10 min. The supernatants were mixed with Ni-NTA His-bind resin (Promega). After washing three times in extraction buffer without PMSF, the recombinant proteins were eluted with elution buffer (100 mM Hepes-NaOH, 10% glycerol, 1 mM EDTA, 10 mM mercaptoethanol, and 500 mM imidazole) and the protein stored at −80 ° C. until assay.
as §2, with “μl. The reaction was carried out at 30° C. for 5 min and then terminated with the addition of 70 μL 24% trichloroacetic acid. The reaction mixture was extracted with ethyl acetate (0.6 ml×3) and the combined organic phases dried under a stream of N2.” for “μl.”

Substrate in series [1]: CC(C)(COP(=O)(O)OP(=O)(O)OC[C@H]1O[C@@H](n2cnc3c(N)ncnc32)[C@H](O)[C@@H]1OP(=O)(O)O)[C@@H](O)C(=O)NCCC(=O)NCCSC(=O)/C=C/c1ccc(O)cc1
The series can be described thus: CCR enzyme activity assay with purified recombinant Medicago CCR1 expressed in E. coli. Particulars: other: CCR1; compound as substrate; mean of three replicate sets of assays.
Source text: as §1, §3
(§4) For CCR enzyme activity assays purified CCR protein (2.5 μg) was mixed with assay buffer (100 mM phosphate pH 6.25, 10 mM 2-mercaptoethanol, 0.2 mM NADPH and cinnamoyl CoA substrates at the indicated concentration) in a final volume of 500 μl. The reaction was carried out at 30° C. for 5 min and then terminated with the addition of 70 μL 24% trichloroacetic acid. The reaction mixture was extracted with ethyl acetate (0.6 ml×3) and the combined organic phases dried under a stream of N2. The pellet was re-suspended in 50 μL methanol and 25 μL was subjected to HPLC analysis out on a Beckman System Gold HPLC system consisting of a programmable solvent module 126, a System Gold 508 autosampler and a System Gold 168 diode array detector. A Waters Spherisorb ODS-2 5 μm reverse phase column (5 μm particle, 250×4.6 mm) was used. Compounds were identified by comparing their UV spectra and retention times with authentic standards of hydroxycinnamoyl aldehydes, and quantified by means of standard curves with correction for recovery of internal standards. Protein concentrations were determined using Bradford reagent (Bio-Rad). For kinetic analysis at various substrate concentrations, enzyme velocity curves were analyzed using Sigmaplot 10 software (Systat Software Inc.).

Substrate in series [2]: CC(C)(COP(=O)(O)OP(=O)(O)OC[C@H]1O[C@@H](n2cnc3c(N)ncnc32)[C@H](O)[C@@H]1OP(=O)(O)O)[C@@H](O)C(=O)NCCC(=O)NCCSC(=O)/C=C/c1ccc(O)c(O)c1
The description is as above. Conditions: other: CCR1; compound as substrate; mean of three replicate sets of assays.
Source text: as §1, §3, §4

Substrate in series [3]: COc1cc(/C=C/C(=O)SCCNC(=O)CCNC(=O)[C@H](O)C(C)(C)COP(=O)(O)OP(=O)(O)OC[C@H]2O[C@@H](n3cnc4c(N)ncnc43)[C@H](O)[C@@H]2OP(=O)(O)O)cc(OC)c1O
Described as above. Conditions: other: CCR1; compound as substrate; mean of three replicate sets of assays.
Source text: as §1, §3, §4

Substrate in series [4]: COc1cc(/C=C/C(=O)SCCNC(=O)CCNC(=O)[C@H](O)C(C)(C)COP(=O)(O)OP(=O)(O)OC[C@H]2O[C@@H](n3cnc4c(N)ncnc43)[C@H](O)[C@@H]2OP(=O)(O)O)ccc1O
The series is described as above. Particulars: other: CCR1; compound as substrate; mean of three replicate sets of assays.
Source text: as §1, §3, §4

Substrate in series [5]: CC(C)(COP(=O)(O)OP(=O)(O)OC[C@H]1O[C@@H](n2cnc3c(N)ncnc32)[C@H](O)[C@@H]1OP(=O)(O)O)[C@@H](O)C(=O)NCCC(=O)NCCSC(=O)/C=C/c1ccc(O)cc1
The series is described as follows: CCR enzyme activity assay with purified recombinant Medicago CCR2 expressed in E. coli. Particulars: other: CCR2; compound as substrate; S0.5 given in place of Km for coumaroyl and caffeoyl CoAs (sigmoidal velocity curves).
Source text: as §1, §3, §4

Substrate in series [6]: CC(C)(COP(=O)(O)OP(=O)(O)OC[C@H]1O[C@@H](n2cnc3c(N)ncnc32)[C@H](O)[C@@H]1OP(=O)(O)O)[C@@H](O)C(=O)NCCC(=O)NCCSC(=O)/C=C/c1ccc(O)c(O)c1
The description is as above. Particulars: other: CCR2; compound as substrate; S0.5 given in place of Km for coumaroyl and caffeoyl CoAs (sigmoidal velocity curves).
Source text: as §1, §3, §4

Substrate in series [7]: COc1cc(/C=C/C(=O)SCCNC(=O)CCNC(=O)[C@H](O)C(C)(C)COP(=O)(O)OP(=O)(O)OC[C@H]2O[C@@H](n3cnc4c(N)ncnc43)[C@H](O)[C@@H]2OP(=O)(O)O)cc(OC)c1O
The series is described as above. Conditions: other: CCR2; compound as substrate; S0.5 given in place of Km for coumaroyl and caffeoyl CoAs (sigmoidal velocity curves).
Source text: as §1, §3, §4

Substrate in series [8]: COc1cc(/C=C/C(=O)SCCNC(=O)CCNC(=O)[C@H](O)C(C)(C)COP(=O)(O)OP(=O)(O)OC[C@H]2O[C@@H](n3cnc4c(N)ncnc43)[C@H](O)[C@@H]2OP(=O)(O)O)ccc1O
Described as above. Particulars: other: CCR2; compound as substrate; S0.5 given in place of Km for coumaroyl and caffeoyl CoAs (sigmoidal velocity curves).
Source text: as §1, §3, §4

With `CC(C)(COP(=O)(O)OP(=O)(O)OC[C@H]1O[C@@H](n2cnc3c(N)ncnc32)[C@H](O)[C@@H]1OP(=O)(O)O)[C@@H](O)C(=O)NCCC(=O)NCCSC(=O)/C=C/c1ccc(O)c(O)c1` [Caffeoyl CoA], at Medicago CCR1 (at 50 μM substrate (FIG. 5A)), the “CCR1 activity relative to CCR2 activity” value is on record as “around 7%”. Besides, the “CCR1 activity with substrate” value on Medicago CCR1 is “very low activity”.

For `COc1cc(/C=C/C(=O)SCCNC(=O)CCNC(=O)[C@H](O)C(C)(C)COP(=O)(O)OP(=O)(O)OC[C@H]2O[C@@H](n3cnc4c(N)ncnc43)[C@H](O)[C@@H]2OP(=O)(O)O)cc(OC)c1O` [Sinapoyl CoA], on Medicago CCR2 (at 20 μM substrate), the “CCR2 activity relative to CCR1” value is “almost twice as active”. Also, the CCR2 activity result at Medicago CCR2 (at 50 μM substrate) is reported as “virtually no activity”. Also, the “CCR2 activity at higher substrate concentrations” value at Medicago CCR2 is on record as “strongly inhibited”.

In the case of `COc1cc(/C=C/C(=O)SCCNC(=O)CCNC(=O)[C@H](O)C(C)(C)COP(=O)(O)OP(=O)(O)OC[C@H]2O[C@@H](n3cnc4c(N)ncnc43)[C@H](O)[C@@H]2OP(=O)(O)O)ccc1O` [Feruloyl CoA], the “CCR1 activity with substrate” value at Medicago CCR1 is listed as “most active”. The “CCR2 activity at higher substrate concentrations” value at Medicago CCR2 is “strongly inhibited”.

B1: Medicago CCR1 (Medicago truncatula) (protein)
chain: MPAATAAAAAESSSVSGETICVTGAGGFIASWMVKLLLEKGYTVRGTLRNPDDPKNGHLKKLEGAKERLTLVKVDLLDLNSVKEAVNGCHGVFHTASPVTDNPEEMVEPAVNGAKNVIIAGAEAKVRRVVFTSSIGAVYMDPNRSVDVEVDESCWSDLEFCKKTKNWYCYGKAVAEAAAWDVAKEKGVDLVVVNPVLVLGPLLQPTINASTIHILKYLTGSAKTYANATQAYVHVRDVALAHILVYEKPSASGRYLCAETSLHRGELVEILAKYFPEYPIPTKCSDEKNPRVKPHIFSNKKLKDLGLEFTPVSECLYETVKSLQDQGHLSIPNKEDSLAVKS
As to B1, in [1], the K0.5 came out at 56.8 ± 4.7 µM; the Vmax – broadly, the top rate of the reaction or transport when substrate is in excess – worked out at 0.25 ± 0.01 µmol/min; the kcat – broadly, the number of substrate molecules converted per active site and unit of time at saturation – amounted to 0.15 ± 0.00167 s⁻¹; the kcat/Km (usually the second-order rate constant that governs catalysis at low substrate concentration) was 2670 ± 1700 M⁻¹ s⁻¹. In [2], the K0.5 is 161 ± 6.8 µM, the Vmax stood at 0.085 ± 0.0 µmol/min, the kcat was 0.0517 ± 0.0012 s⁻¹ and the kcat/Km turned out to be 317 ± 0 M⁻¹ s⁻¹. Besides, in [3], the K0.5 worked out at 7.2 ± 0.4 µM, the Vmax is 0.15 ± 0.01 µmol/min, the kcat amounted to 0.0917 ± 0.00233 s⁻¹ and the kcat/Km came to 11300 ± 830 M⁻¹ s⁻¹. In series [4], the K0.5 came to 54.5 ± 3.2 µM, the Vmax worked out at 1.64 ± 0.11 µmol/min, the kcat came out at 1 ± 0.0342 s⁻¹ and the kcat/Km was determined as 19000 ± 1300 M⁻¹ s⁻¹.

B2: Medicago CCR2 (Medicago truncatula) (protein)
chain: MPAYDNTSSVSGGDQTVCVTGAGGFIASWLVKLLLERGYTVRGTVRNPEDPKNGHLKELEGARERLTLHKVDLLDLQSIQSVVHGCHGVFHTASPVTDNPDEMLEPAVNGTKNVIIASAEAKVRRVVFTSSIGTVYMDPNTSRDVVVDESYWSDLEHCKNTKNWYCYGKTVAEQSAWDIAKENQVDLVVVNPVVVLGPLLQPTINASTIHILKYLNGAAKTYVNATQSYVHVKDVALAHLLVYETNSASGRYICCETALHRGEVVEILAKYFPEYPLPTKCSDEKNPRVKPYKFSNQKLKDLGLEFTPVKQCLYDTVRSLQEKGHLPIPPMQEDSA
With B2, the K0.5 in series [5] worked out at 12.4 ± 1.0 µM; in series [6] it was 23.4 ± 0.80 µM; in series [7], 32.7 ± 3.6 µM; in series [8] it was 44.5 ± 4.5 µM. Besides, the Vmax in series [5] amounted to 0.44 ± 0.01 µmol/min; in series [6] it was 0.35 ± 0.01 µmol/min; in series [7], 0.32 ± 0.02 µmol/min; in series [8] it was 0.48 ± 0.05 µmol/min. Further, the kcat amounted to 0.29 ± 0.0067 s⁻¹ in series [5], 0.15 ± 0.005 s⁻¹ in [6], 0.2 ± 0.0183 s⁻¹ in [7] and 0.302 ± 0.0333 s⁻¹ in series [8]. The kcat/Km in series [5] is 15000 ± 500 M⁻¹ s⁻¹; in series [6] it was 8170 ± 330 M⁻¹ s⁻¹; in series [7] it was 6170 ± 830 M⁻¹ s⁻¹; in series [8], 6670 ± 830 M⁻¹ s⁻¹.

These data come from patent US20120047600A1, “CAFFEOYL COA REDUCTASE” (priority 2010, published 2012).
